Numbering of substitutions follows the chain as printed.

Assay [1] deals with T1, human Glypican-3 expressed on 293 cells (pFLAG-CMV3 hGPC3) (human, UniProt P51654 25-554).
T1 construct: whole, on cells; FLAG-tagged through the vector; also called human GPC-3
The assay is described as follows: FACS on 293 cells transfected with pFLAG-CMV3 hGPC3. As to the method:
Subsequently, a characteristic of various anti-Glypican-1 antibodies that reacted with Glypican-1, but not with Glypican-3 was determined to prepare a chimeric protein expression vector having an amino acid sequence of the 430th or more position of Glypican-1 substituted with that of Glypican-3 (FIG. 17). Various expression vectors were transfected into the 293 cell and the reactivity with various anti-Glypican-1 antibodies was analyzed by FACS. Consequently, since the reactivity in FACS is not recognized in three clones #17(2-60), #2(1-5), and #10(1-57), it is believed that the epitope region in these clones is present in the 430th to the 530th corresponding to an extracellular region of Glypican-1 (FIG. 18).

For assay [2], the target named is T2, recombinant Glypican-1 (R&D systems 4519-GP-050) (Homo sapiens (Human), UniProt P35052 24-530).
T2 construct: Bought protein
T2 sequence: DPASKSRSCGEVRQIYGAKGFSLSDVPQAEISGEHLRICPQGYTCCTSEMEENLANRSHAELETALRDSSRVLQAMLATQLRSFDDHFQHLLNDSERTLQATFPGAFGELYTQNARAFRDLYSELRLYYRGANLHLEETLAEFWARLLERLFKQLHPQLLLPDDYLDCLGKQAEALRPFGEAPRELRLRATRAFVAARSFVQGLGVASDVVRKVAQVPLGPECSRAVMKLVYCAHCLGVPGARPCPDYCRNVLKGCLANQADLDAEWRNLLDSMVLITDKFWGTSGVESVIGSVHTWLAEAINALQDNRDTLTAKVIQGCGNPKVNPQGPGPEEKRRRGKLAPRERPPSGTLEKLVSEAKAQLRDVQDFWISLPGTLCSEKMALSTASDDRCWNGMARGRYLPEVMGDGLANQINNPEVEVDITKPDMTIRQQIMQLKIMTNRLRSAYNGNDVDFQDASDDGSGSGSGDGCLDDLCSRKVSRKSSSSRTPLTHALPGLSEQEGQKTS
Briefly: Biacore 3000 (SPR): antibody captured on rabbit anti-mouse IgG on a CM5 chip, recombinant Glypican-1 added at various concentrations; BIAevaluation 4.1. How it is done: Affinity analysis of an anti-Glypican-1 antibody was measured using Biacore 3000. A rabbit anti-mouse IgG polyclonal antibody of the Mouse Antibody Capture Kit was solid-phased to a CM5 sensor tip, various anti-Glypican1 antibody clones were captured, recombinant Glypican-1 (R&D systems 4519-GP-050) was added at various concentrations as a ligand, and binding and dissociation were monitored. The obtained sensorgram was analyzed using BIAevaluation 4.1 software and a KD value was calculated (FIG. 12).
A general note: SPR reads the build-up and loss of mass on a sensor chip optically.

The target in assay [3] is T3, mouse Glypican-1 expressed on 293 cells (mouse, UniProt Q9QZF2 24-529).
T3 construct: whole, on cells; also called mouse GPC-1; mouse GPC1
T3 sequence (looked up): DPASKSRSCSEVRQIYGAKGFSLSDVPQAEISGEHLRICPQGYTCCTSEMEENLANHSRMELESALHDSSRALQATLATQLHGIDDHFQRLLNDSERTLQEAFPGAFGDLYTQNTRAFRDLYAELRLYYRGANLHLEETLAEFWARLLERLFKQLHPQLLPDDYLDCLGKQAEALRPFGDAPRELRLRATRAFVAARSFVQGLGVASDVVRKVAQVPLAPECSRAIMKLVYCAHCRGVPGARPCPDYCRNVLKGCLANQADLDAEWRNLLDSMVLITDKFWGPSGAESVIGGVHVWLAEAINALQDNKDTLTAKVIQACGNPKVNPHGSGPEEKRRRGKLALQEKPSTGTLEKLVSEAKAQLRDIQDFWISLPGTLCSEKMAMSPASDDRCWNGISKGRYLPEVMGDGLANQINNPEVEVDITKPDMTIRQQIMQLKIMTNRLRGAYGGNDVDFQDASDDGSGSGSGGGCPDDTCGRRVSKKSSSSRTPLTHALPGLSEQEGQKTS
The assay is described as follows: FACS on 293 cells forcibly expressing mouse GPC1. How it is done:
A mouse Glypican-1 expression vector or an empty vector was transfected to the 293 cell using lipofectamine 2000 and the reactivity with various clones of an anti-Glypican-1 antibody was analyzed by FACS.

Assay [4] deals with T4, human Glypican-1 forcibly expressed on CT01 chicken T-lymphoblast-like cells (CT01-GPC-1#42) (human, UniProt P35052 24-530).
T4 sequence: T2 sequence
The assay is described as follows: FACS: clone as primary antibody, FITC-labeled goat anti-mouse IgG as secondary; CT01 cells forcibly expressing human Glypican-1 (CT01-GPC-1#42), Glypican-1-negative CT01 cells as negative cells. How it is done:
In carrying out FACS analysis using an antibody, a chicken T-lymphoblast-like cell strain (CT01 cell) was used as a Glypican-1 negative cell and a CT01 cell (CT01-GPC-1#42) forcibly expressing human Glypican-1 was used as a Glypican-1 positive cell. Various clones of the developed antibodies were used as primary antibodies, a FITC-labeled Goat anti-Mouse IgG (H+L chain specific) (Southern Biotech) was used as a secondary antibody, measurement was carried out using FACS Cantoll (BD), and the measurement data was analyzed using Flow Jo (Tree Star). As a result, twenty types of clones were successfully developed as antibodies that can stain Glypican-1 with FACS.
In general terms: In flow cytometry, cells or beads pass a laser one at a time.

T1 sequence (P51654 25-554 limits assumed): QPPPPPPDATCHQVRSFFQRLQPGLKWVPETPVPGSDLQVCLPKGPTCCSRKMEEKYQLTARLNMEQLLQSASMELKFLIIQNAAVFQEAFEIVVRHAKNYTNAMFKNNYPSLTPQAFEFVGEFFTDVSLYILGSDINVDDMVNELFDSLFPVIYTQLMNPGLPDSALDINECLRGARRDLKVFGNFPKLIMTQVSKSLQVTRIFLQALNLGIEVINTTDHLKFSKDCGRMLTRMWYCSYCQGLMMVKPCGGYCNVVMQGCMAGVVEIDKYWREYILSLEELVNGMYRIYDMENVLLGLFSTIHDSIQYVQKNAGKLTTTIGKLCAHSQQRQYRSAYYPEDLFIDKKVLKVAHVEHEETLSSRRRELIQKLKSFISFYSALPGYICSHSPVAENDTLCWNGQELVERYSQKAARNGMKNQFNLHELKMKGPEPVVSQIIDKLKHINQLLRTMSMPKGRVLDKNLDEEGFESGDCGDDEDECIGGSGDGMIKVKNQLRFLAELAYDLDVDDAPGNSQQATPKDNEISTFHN

B1: anti-GPC-1 antibody 2-70 (antibody, V domains shown)
VH: AVTLDESGGGLQTPGGALSLVCKASGLSTFSDRGMHWVRQAPGKGLEFVAAISSSGRFTLYGAAVKGRATISRDNGQSTVRLQLNDLRAEDTAIYYCARGTTTGWWADAGEIDAWGHGTEVIVST
VL: ALTQPAFMSANPGETVKITCSGGSYSAYGWFQQKSPGSAPVTLIYNDNIRPSDISSRFSGSKSGSTATLTITGVQADDEAVYFCGNEDRNNTATFGAGTTLTV
notes: detection was with anti-mouse IgG and the control was mouse IgG2a; also called #19; clone 2-70
As for B1, the binding result in assay [1] is “no binding”.

B2: anti-GPC-1 antibody 1-57 (antibody, V domains shown)
VH: AVTLDESGGGLQTPGGGLSLVCKGSGFTLTDRGMHWVRQAPGKGLEWVAAISSSGRFTLYAPAVTGRATISRDNGQSTVRLQLNNLRAEDTGTYYCARGNAGGWWADGGEIDAWGHGTEVIVST
VL: ALTQPSSVSANPGETVKITCSGGSGSYGWFQQKSPGSAPVTVIYSNNKRPTDIPSRFSGSKSGSTNTLTITGVQADDEAVYFCGSADSSYIGIFGAGTTLTV
notes: detection was with anti-mouse IgG and the control was mouse IgG2a; also called #10; clone 1-57
B2: in assay [1], the binding result is given as “no binding”. In assay [2], the Kd (in general, the free concentration of one partner at which half of the binding sites on the other are occupied at equilibrium, for simple one-to-one binding) turned out to be 176 nM; the koff (in general, the first-order rate constant of dissociation) came out at 0.00213 s⁻¹; the kon (as a rule, the second-order rate constant of association) worked out at 12100 M⁻¹ s⁻¹. For the same molecule, in assay [3], the binding result was “binds”.

B3: anti-GPC-1 antibody 1-10 (antibody, V domains shown)
VH: AVTLDESGGGLQTPGGGLSLVCKASGFTFSGYDMMWVRQAPGKGLEWVGQISSTGSIQKYGAAVKGRATISRDNGQSTMRLQLNDLRAEDTGTYFCAKSAYGYSSSGPEDIDAWGHGTEVIVST
VL: ALTQPASVSANLGGTVKITCSGGSSDAYGWYQQKSPDSAPVTVIYGNNNRPSDIPSRFSGSTSGSTNTLTITGVQADDEAVYFCGSYDGSTDSDGIFGAGTTLTV
notes: detection was with anti-mouse IgG
Consider B3, for which, in assay [4], the binding result is recorded as “binds”.

B4: anti-GPC-1 antibody 1-5 (antibody, V domains shown)
VH: AVTLDESGGGLQTPGGALSLVCKASGFKFRSYDMYWVRQAPGKGLEYVAGIINTGRETYYGAAVKGRATISRDNGRSTVRLQLNNLRAEDTGTYFCAKGAAWNYAGSIDAWGHGTEVIVST
VL: ALTQPASVSANPGETVKITCSGGSGSYGWYQQKSPGSAPVTVIYGDNKRPTDISSRFSGSTSGSTNTLTITGVQAEDEAVYFCGSRDNTYAGIFGAGTTLTV
notes: detection was with anti-mouse IgG and the control was mouse IgG2a; also called #2; clone 1-5
Regarding B4, the binding result in assay [1] is given as “no binding”. In assay [2], the dissociation constant Kd was 20.9 nM, the koff came to 0.000951 s⁻¹ and the kon came to 45500 M⁻¹ s⁻¹. The binding result in assay [3] was “binds”.

B5: anti-GPC-1 antibody 2-60 (antibody, V domains shown)
VH: AVTLDESGGGLQTPGGALSLVCKASGFTYSSYAMGWVRQAPGKGLEFVASISSDGSDTAYGSAVKGRATISRDNRQSTLRLQLNNLRAEDTGTYYCAKSYRCSWNCWDYAAKIDAWGHGTEVTVS
VL: VALTQPASVSANPGETVKITCSGSGSYTGSYYYGWYQQKSPGSAPVTVIYNNNKRPSDIPSRFSGSTSGSTATLTITGVQAEDEAVYFCGSYDRSSDSGIFGAGTTLTV
notes: detection was with anti-mouse IgG and the control was mouse IgG2a; also called #17; clone 2-60
As for B5, the binding result in assay [1] is “no binding”. For the same molecule, in assay [2], the Kd was determined as 15.2 nM, the koff stood at 0.00105 s⁻¹ and the kon was determined as 69100 M⁻¹ s⁻¹.

B6: anti-GPC-1 antibody 1-30 (antibody, V domains shown)
VH: AVTLDESGGGLQTPGGGLSLVCKASGFTLNSYDMLWVRQAPGKGLEFVAAISIASGSSYAPAVKGRATISRDNGQSTVRLQLNNLRAEDTGTYYCARGGTGYYYSDATGQIDAWGHGTEVIVST
VL: ALTQPSSVSANPGETVKITCSGGSSGYGYGWYQQKAPGSAPVTVIYSNNQRPSNIPSRFSGSTSGSTSTLTITGVQADDEAVYYCGSTDSSTYDGIFGAGTTLTV
notes: as for B3
In the case of B6, the binding result in assay [4] is reported as “binds”.

B7: anti-GPC-1 antibody 1-4 (antibody, V domains shown)
VH: AVTLEESGGGLQTPGGGLSLVCKASGFDFRNNGMAWVRQAPGKGLEWVAGISGTAYAVYGAAVKGRATISRDNGQSTVRLQLNNLRAEDTATYYCAKTVGSCGIDCHTTGFIDGWGHGTEVIVST
VL: ALTQPSSVSANPGETVKITCSGGSYSYGWFQQKSPGSAPVTVIYWDDERPSGIPSRFSGSKSGSTGTLTITGVQAEDEAVYFCGSRDSSYVGIFGAGTTLTV
notes: as for B3
For the molecule B7, in assay [4], the binding result is “binds”.

B8: anti-GPC-1 antibody 1-50 (antibody, V domains shown)
VH: AVTLDESGGGLQTPGGALSLVCKASGFTFNNNGMSWVRQAPGKGLEWVAGISGAGYSNYAPAVKGRATISRDNGQSTVRLQLNSLRAEDTGTYFCAKVASSCGNECYTSGFIDAWGHGTEVIVST
VL: ALTQPASVSANLGGTVKITCSGGSGSYGWYQQKSPGSAPVTVIFWDNERPSDIPSRFSGSKSGSTHTLTITGVQAEDEAVYFCGSRDRMYDGIFGAGTTLTV
notes: as for B3
Regarding B8, in assay [4], the binding result is “binds”.

B9: anti-GPC-1 antibody 1-18 (antibody, V domains shown)
VH: AVTLDESGGGLQTPGGALSLVCKASGFTFSSYTMFWVRQAPGKGLEFVAGIDNTGIYTPYGSAVKGRATISRDNGQSTVRLQLNNLRAEDTGTYYCAKYADACTGPWCGSSAYTGSTIDAWGHGTEVTVST
VL: ALTQPSSVSANPGETVKLTCSGGGSYYGWYQQKSPGSAPVTVIYENTERPSNIPSRFSGSTSGSTSTLTIIGVQADDEAVYFCGGYDSSTDAGIFGAGTTLTV
notes: as for B3
With B9, in assay [4], the binding result is recorded as “binds”.

B10: anti-GPC-1 antibody 1-28 (antibody, V domains shown)
VH: B9 VH with G16R, G115A, T128I
VL: ALTQPASVSANLGGTVEITCSGGGNDYGWYQQKSPGSAPVTVIYDSINRPSNIPSRFSGSTSGSTATLTITGVQADDEAVYFCGSYDSSYVGIFGAGTTLTV
notes: detection was with anti-mouse IgG and the control was mouse IgG2a; also called #7; clone 1-28
For the molecule B10, the binding result in assay [1] is listed as “no binding”; in assay [3], “binds”.

B11: anti-GPC-1 antibody 2-63 (antibody, V domains shown)
VH: AVTLDESGGGLQTPGGTLSLVCKASGFDFSSVNMFWVRQAPGKGLEFVAGIDNDATFTLYGSAVKGRASISRDNGQSTVRLQLNNLRAEDTGTYYCAKTLCSTTWGCGAYSAGDIDAWGHGTEVTVST
VL: ALTQPSSVSANPGETVKITCSGGGSSGYGYYGWYQQKSPGSAPVTVIYNNNKRPTDIPSRFSGALSGSTATLTITGVQVEDEAVYYCGSRDNTYVGIFGAGTTLTV
notes: detection was with anti-mouse IgG and the control was mouse IgG2a; also called #18; clone 2-63
For the molecule B11, in assay [2], the Kd stood at 6.19 nM, the koff was 0.000848 s⁻¹ and the kon stood at 137000 M⁻¹ s⁻¹.

The values are drawn from US20170066836A1 (NATIONAL UNIVERSITY CORPORATION KOCHI UNIVERSITY, published 2017).
